Key:
GST-MmUbc6 = target: T1, GST-MmUbc6
T1 sequence (Q9JJZ4 whole entry, looked up): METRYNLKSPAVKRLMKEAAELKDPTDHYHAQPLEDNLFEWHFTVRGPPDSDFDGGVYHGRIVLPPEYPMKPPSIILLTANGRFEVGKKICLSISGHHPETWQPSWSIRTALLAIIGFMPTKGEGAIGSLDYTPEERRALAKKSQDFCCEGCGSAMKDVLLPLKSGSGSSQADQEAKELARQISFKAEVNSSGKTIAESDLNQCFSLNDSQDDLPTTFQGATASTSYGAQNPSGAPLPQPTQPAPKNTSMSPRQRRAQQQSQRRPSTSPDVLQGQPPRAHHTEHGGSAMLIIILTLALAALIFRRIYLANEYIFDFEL

GST-MmUbc7, P60605 = target: T2, GST-MmUbc7, P60605
T2 chain: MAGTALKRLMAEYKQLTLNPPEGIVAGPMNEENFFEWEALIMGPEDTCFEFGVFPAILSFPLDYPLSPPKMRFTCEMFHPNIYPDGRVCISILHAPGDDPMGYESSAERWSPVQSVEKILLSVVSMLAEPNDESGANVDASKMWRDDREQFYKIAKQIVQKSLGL

[1] = target: three human E2 enzymes UbCH2, UbCH3 and UbCH5a (at least one of these three enzymes)
UbCH2, P62256 = target: T3, UbCH2, P62256
T3 chain: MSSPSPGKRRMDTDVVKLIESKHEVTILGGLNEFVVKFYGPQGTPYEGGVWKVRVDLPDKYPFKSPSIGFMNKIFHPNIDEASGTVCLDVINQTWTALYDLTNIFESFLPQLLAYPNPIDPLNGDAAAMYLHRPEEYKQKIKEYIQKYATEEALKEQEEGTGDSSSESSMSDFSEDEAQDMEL

Chain of GST-UbCH5a, P51668 (P51668 whole entry): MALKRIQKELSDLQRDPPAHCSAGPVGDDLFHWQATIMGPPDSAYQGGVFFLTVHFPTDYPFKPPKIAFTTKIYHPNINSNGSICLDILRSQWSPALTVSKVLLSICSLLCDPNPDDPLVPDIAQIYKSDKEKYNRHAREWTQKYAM

B1: GST fusion of the MARCH-I RING-CH domain (protein)
chain: MTSSHVCCNFLNMWKKSKISTMYYLNQDAKLSNLFLQASSPTTGTAPRSQSRLSVCPSTQDICRICHCEGDEESPLITPCRCTGTLRFVHQSCLHQWIKSSDTRCCELCKYDFIMETKLKPLRKWEKLQMTTSERRK
formation of high-molecular weight ubiquitin complexes in vitro (anti-ubiquitin blot) (E2 enzymes tested): MARCH-I was less active with most E2 enzymes tested with the notable exception of UbCH5a
promotion of ubiquitination in vitro (GST-MmUbc6): MARCH-I was only active with MmUbc6
promotion of ubiquitination in vitro (GST-MmUbc7, P60605): Whereas MARCH-II was able to function with both proteins, MARCH-I was only active with MmUbc6
formation of high-molecular weight ubiquitin complexes in vitro (anti-ubiquitin blot) (GST-UbCH5a, P51668): MARCH-I was less active with most E2 enzymes tested with the notable exception of UbCH5a
formation of high-molecular weight ubiquitin complexes in vitro (anti-ubiquitin blot) [1]: The RiNG-CH-GST fusion proteins of all four MARCH-proteins tested were able to catalyze the formation of high-molecular weight molecular ubiquitin complexes in the presence of at least one of these three enzymes

B2: GST fusion of the MARCH-IV RING-CH domain (protein)
chain: WYCYGLCAPAPQMLRHQGLLKCRCRMLFNDLKVFLLRRPPQAPLPMHGDPQPPGLAANNTLPALGAGGWAGWRGPREVVGREPPPVPPPPPLPPSSVEDDWGGPATEPPASLLSSASSDDFCKEKTEDRYSLGSSLDSGMRTPLCRICFQGPEQGELLSPCRCDGSVKCTHQPCLIKWISERGCWSCELCYYKYHVIAISTKNPLQWQAISLTVIEKVQ
formation of high-molecular weight ubiquitin complexes in vitro (anti-ubiquitin blot) (UbCH2, P62256): MARCH-IV was mostly active with UbCH2
formation of high-molecular weight ubiquitin complexes in vitro (anti-ubiquitin blot) [1]: The RiNG-CH-GST fusion proteins of all four MARCH-proteins tested were able to catalyze the formation of high-molecular weight molecular ubiquitin complexes in the presence of at least one of these three enzymes

B3: GST-ICP0-RING (amino acids 1-241 of ICP0) (protein)
chain: MEPRPGASTRRPEGRPQREPAPDVWVFPCDRDLPDSSDSEAETEVGGRGDADHHDDDSASEADSTDTELFETGLLGPQGVDGGAVSGGSPPREEDPGSCGGAPPREDGGSDEGDVCAVCTDEIAPHLRCDTFPCMHRFCIPCMKTWMQLRNTCPLCNAKLVYLIVGVTPSGSFSTIPIVNDPQTRMEAEEAVRAGTAVDFIWTGNQRFAPRYLTLGGHTVRALSPTHPEPTTDEDDDDLDD
formation of high-molecular weight ubiquitin complexes in vitro (anti-ubiquitin blot) (GST-MmUbc6): The ICP0-RING domain also showed some activity with the murine ER-bound E2 enzyme MmUbc6
formation of high-molecular weight ubiquitin complexes in vitro (anti-ubiquitin blot) (GST-UbCH5a, P51668): ICPO promoted the formation of high-molecular weight complexes in the presence of the E2 enzyme ubCH5a
